This note sets out measurements from US20130177979A1, “METHODS AND COMPOSITIONS FOR CELL PERMEABLE STAT3 INHIBITOR” (University of Central Florida Research Foundation, Inc., priority 2010, published 2013).

The target in assay [1] is 5-carboxyfluorescein-GpYLPQTV-NH2. Put plainly: Fluorescence polarization saturation curve; 10 nM 5-carboxyfluorescein-GpYLPQTV-NH2 probe with increasing purified His-Stat3.
In assay [2] the target is GpYLPQTV (IL-6R/gp130-derived pTyr peptide). Put plainly: SPR (SensiQ), His-tagged protein immobilised on HisCap chip, pTyr peptide as analyte.
For assay [3], the target named is PpYLKTK (Stat3-derived pTyr705 peptide). The assay is described as above.
Assay [4] deals with GpYIKTE (Stat1 pY701 peptide). Described as above.
For assay [5], the target named is GpYVKPQ (pTyr peptide of Stat5). The assay is described as above.
Assay [6] has as its target PEpYINQS (pY1068 peptide of EGFR). Described as above.
Assay [7] addresses PVpYHNQP (pY1086 peptide of EGFR). The description is as above.
Assay [8] concerns the target GpYVKPQ (pTyr peptide of Stat5). Description: SPR (SensiQ); His-tagged Stat3 SH2 domain immobilised on a HisCap sensor chip, GpYVKPQ passed over as analyte; sensorgram shown at 100 µM.

In general, EC50 (read off the curve) refers to the concentration at which the effect is half-maximal. Low readings indicate higher potency in that assay, high ones lower potency in that assay. What is called Kd is a measure of binding affinity in units of concentration. A low value points to tighter binding. His-tagged Stat3 (full-length Stat3) had an EC50 (read off the curve) in assay [1] of 0.1 µM. In assay [2], the Kd came out at 0.02 µM.
As to His-tagged Stat3 SH2 domain, the Kd in assay [3] turned out to be 1.6 µM; in assay [4], 6.6 µM; in assay [5], 5200 µM; in assay [6], 0.4 µM; in assay [2], 0.03 µM; in assay [7], 2.6 µM. In assay [8], this substance had a Kd of 5140 µM.
